Results reported in PMC9811555 (Current protocols, 2022).

B1: Nb127D01-HA-His (VHH)
VHH: EVQLVESGGGLVQAGESLRLSCAASGSTFDFKVMGWYRQPPGKQREGVAAIRLSGNMHYAESVKGRFAISKANAKNTVYLQMNSLRPEDTAVYYCKVNIRGQDYWGQGTQVTVSS
B2: Nb127D01-ALFA-His (VHH)
VHH: B1 VHH
B3: NbVHH05-HA-His (VHH)
VHH: QVQLQESGGGLVQPGGSLRLSCAASGFVFENSAMAWYRQAPGKERELIAVIGTTFIKLAESVKGRFTISRDNAKSTVYLQMNNLKPEDTAVYYCSKSGAYWGQGTQVTVSS

Tests used:
H2B-mCherry-127D01 = target: T1, H2B-mCherry-127D01 (127D01 tag, identical to a stretch of …, UniProt P25025); test: far-Western, overlay or dot blot
T1 chain: SFEDFWKGED

VHH05-REPTOR-127D01 = target: T2, VHH05-REPTOR-127D01 (VHH05 and 127D01 tags (human UBE2J1 and …, UniProt Q9Y385;P25025)); test: immunostaining of cells or tissue
T2 chain 1: QADQEAKELARQIS
T2 chain 2: SFEDFWKGED

H2B-mCherry-VHH05 = target: T3, H2B-mCherry-VHH05 (VHH05 tag, identical to a stretch of …, UniProt Q9Y385); test: far-Western, overlay or dot blot
T3 chain: QADQEAKELARQIS

Row | Binder | binding result (H2B-mCherry-127D01) | binding result (VHH05-REPTOR-127D01) | binding result (H2B-mCherry-VHH05)
1 | B1 | binds |  | 
2 | B2 |  | binds | 
3 | B3 |  | binds | binds
